One may read the Kd as the constant that tells how readily two partners part at equilibrium. High values mean a looser complex, low ones a tighter complex.

The record followed here is patent publication US20250388694A1.

In the experiment the target is Human TCTP (translationally controlled tumor protein) (human) (UniProt P13693). Briefly: SPR, Biacore 8K, human TCTP immobilised on CM5 chip, antibody as analyte, 1:1 model. On the technique in general: SPR reads the build-up and loss of mass on a sensor chip optically.
Chain of Human TCTP (translationally controlled tumor protein) (human) (P13693 whole entry): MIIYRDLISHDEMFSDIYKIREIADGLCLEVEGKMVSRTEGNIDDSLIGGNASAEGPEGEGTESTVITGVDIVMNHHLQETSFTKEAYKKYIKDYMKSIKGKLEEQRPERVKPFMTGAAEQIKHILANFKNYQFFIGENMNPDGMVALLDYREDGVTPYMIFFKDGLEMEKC

B1: 55F3 (antibody, from another filing, V domains shown)
VH: DVQLQESGPGLVKPSQSLSLTCTATGYSIASDYAWNWIRQFPGNKLEWMGYINYSGSTGYNPSLKSRISITRDTSKNQFFLQLNSVTTEDTATYYCARFEAGYWGQGTTLTVSS
VL: DIKMTQSPSSMSASLGERVTITCKASQDINRYLSWFQQKPGKSPKTLIYRANRLVDGVPSRFSGSGSGQDYSLTISSLEYGDMGIYYCLQYNEFPLTFGAGTKLELKR
For B1, the Kd came out at 263 nM.
